Where no end group is shown, it is not given here.
Biological target: human PAC1 receptor (human), P41586
Test: cell-based or functional assay

human PAC1 receptor (human), P41586, sequence (P41586 21-468): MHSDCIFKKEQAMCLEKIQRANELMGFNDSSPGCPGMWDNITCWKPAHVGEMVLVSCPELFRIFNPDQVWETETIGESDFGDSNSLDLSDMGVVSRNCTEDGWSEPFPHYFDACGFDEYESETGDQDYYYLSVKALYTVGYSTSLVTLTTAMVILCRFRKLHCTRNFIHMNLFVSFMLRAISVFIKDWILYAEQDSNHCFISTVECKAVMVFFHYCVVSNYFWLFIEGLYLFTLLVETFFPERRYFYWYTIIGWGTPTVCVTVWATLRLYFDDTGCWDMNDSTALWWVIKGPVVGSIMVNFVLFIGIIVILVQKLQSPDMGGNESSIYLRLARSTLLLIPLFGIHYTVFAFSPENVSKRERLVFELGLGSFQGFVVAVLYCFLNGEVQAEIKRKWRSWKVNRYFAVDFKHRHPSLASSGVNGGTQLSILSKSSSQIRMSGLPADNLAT

For HSDGIFAPGNSVFKECMKQKKKEFKAGK (ends and bridges not checked) [MAXCAP 4], the cAMP (fmol) at 10 nM was 4060 fmol, the cAMP (fmol) at 100 nM was 6400 fmol and the cAMP (fmol) at 1 µM was 6400 fmol. It also gave a cAMP (fmol) at 10 µM of 5780 fmol.

HSDGIFTDSYSSRYRKQMAVKKYLAAVLPGNSVFKECMKQKKKEFKAGK (ends and bridges not checked) [MAXCAP 1] gave a cAMP (fmol) at 1 nM of 3170 fmol, a cAMP (fmol) at 10 nM of 6220 fmol and a cAMP (fmol) at 100 nM of 4710 fmol.

Reference: patent publication US20220251162A1
